In article PMC10943247:
One block for each substance: values may come before it.

Columns and labels:
Experiment in all cases: mass photometry; (N8-)CRL2^FEM1B wild type or mutant alone; 2 µL of 10 nM protein added to 18 μL of 50 mM HEPES pH 7.5, 150 mM NaCl
[1] = molecular target: CRL2^FEM1B complex with FEM1B^F549R, unneddylated (human) (UniProt Q13617)
[2] = molecular target: CRL2^FEM1B complex with FEM1B^F549S, unneddylated (human) (UniProt Q13617)
[3] = molecular target: CRL2^FEM1B complex with FEM1B^F549T, unneddylated (human) (UniProt Q13617)

stoichiometry N [1]: 2
Substance: CRL2^FEM1B complex with FEM1B^F549R, unneddylated (from UniProt Q13617 1-745; P62877 1-108; Q15370 1-104; Q15369 17-112; Q9UK73 1-627)

stoichiometry N [2]: 2
Substance: CRL2^FEM1B complex with FEM1B^F549S, unneddylated (from UniProt Q13617 1-745; P62877 1-108; Q15370 1-104; Q15369 17-112; Q9UK73 1-627)

stoichiometry N [3]: 2
Substance: CRL2^FEM1B complex with FEM1B^F549T, unneddylated (from UniProt Q13617 1-745; P62877 1-108; Q15370 1-104; Q15369 17-112; Q9UK73 1-627)
